Values belong to the compound of their own block, whether it stands above or below them. Square brackets hold non-standard residues; d marks the D form. Ends that are not written are not given here. Peptide text beside a SMILES is read from it. * marks the point of attachment. Benzoyl(4-tBu) = CC(C)(C)c1ccc(C(=O)*)cc1; Lys(Me3) = C[N+](C)(C)CCCC[C@H](N)C(=O)O; Lys(Et2) = CCN(CC)CCCC[C@H](N)C(=O)O
Legend:
[1] = Intracellular concentration by LC-MS/MS; type: in vitro ADME; conditions: human, PC3 cells
PC3 cells [2] = assay: Intracellular concentration by LC-MS/MS; type: in vitro ADME
PC3 cells [3] = assay: CellTiter-Glo cell viability assay; type: cell-based; conditions: up to 100 μM, 48 hours
HEK293T cells = assay: CellTiter-Glo cell viability assay; type: cell-based; conditions: up to 100 μM, 48 hours
Mouse pharmacokinetics = type: in vivo; conditions: male swiss albino mice
CBX7 = conditions: cited from earlier work
[4] = biological target: CBX7 chromodomain (residues 8-62), C-terminal His-tag (UniProt O95931); assay: ITC
[5] = biological target: CBX2 chromodomain (residues 9-66) (UniProt Q14781); assay: ITC
[6] = biological target: CBX4 chromodomain (residues 8-65), N-terminal His-tag (UniProt O00257); assay: ITC
[7] = biological target: CBX6 chromodomain (residues 8-65) (UniProt O95503); assay: ITC
[8] = biological target: CBX8 chromodomain (residues 8-61), N-terminal His-tag (UniProt Q9HC52); assay: ITC
[9] = biological target: CDY1 chromodomain (residues 1-101) (UniProt Q9Y6F8); assay: ITC
[10] = biological target: CDYL1b chromodomain (residues 1-78) (UniProt Q9Y232); assay: ITC
[11] = biological target: CDYL2 chromodomain (residues 1-75) (UniProt Q8N8U2); assay: ITC
[12] = biological target: CBX7 (AlphaScreen construct); assay: AlphaScreen or HTRF

CBX7 chromodomain (residues 8-62), C-terminal His-tag, sequence (O95931 8-62): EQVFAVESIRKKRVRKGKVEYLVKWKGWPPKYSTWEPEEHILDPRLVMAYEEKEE
CBX8 chromodomain (residues 8-61), N-terminal His-tag, sequence (Q9HC52 8-61): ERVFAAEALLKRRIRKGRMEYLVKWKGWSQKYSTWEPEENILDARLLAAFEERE
CBX6 chromodomain (residues 8-65), sequence (O95503 8-65): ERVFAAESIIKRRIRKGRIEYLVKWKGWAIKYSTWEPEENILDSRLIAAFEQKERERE
CDYL2 chromodomain (residues 1-75), sequence (Q8N8U2 1-75): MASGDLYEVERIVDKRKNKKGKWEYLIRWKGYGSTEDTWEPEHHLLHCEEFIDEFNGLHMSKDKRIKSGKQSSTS
CBX2 chromodomain (residues 9-66), sequence (Q14781 9-66): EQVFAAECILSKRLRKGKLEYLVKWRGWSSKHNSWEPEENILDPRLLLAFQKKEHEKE
CDY1 chromodomain (residues 1-101), sequence (Q9Y6F8 1-101): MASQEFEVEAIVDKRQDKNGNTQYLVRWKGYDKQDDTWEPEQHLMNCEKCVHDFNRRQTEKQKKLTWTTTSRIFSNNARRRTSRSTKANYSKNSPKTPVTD

Compound: CCN(CC)CCCC[C@H](NC(=O)[C@H](CC(C)C)NC(=O)[C@H](C)NC(=O)[C@H](Cc1ccccc1)NC(=O)c1ccc(C(C)(C)C)cc1)C(=O)N[C@@H](CO)C(=O)OC [UNC3866] ({Benzoyl(4-tBu)}-FAL[Lys(Et2)]S-OMe)
EC50 [1]: 340 nM
intracellular concentration (PC3 cells [2]; PC3 cells treated with 30 μM UNC3866 for 24 hrs, LC-MS/MS): 1.4 ± 0.3 µM
intracellular concentration as % of the extracellular concentration (PC3 cells [2]; PC3 cells, 30 μM UNC3866, 24 hours): ~5%
toxicity in PC3 cells (PC3 cells [3]): no toxic effects
toxicity in HEK293T cells (HEK293T cells): no toxic effects
clearance (in words) (Mouse pharmacokinetics): moderate

Compound: RGFAL[Lys(Me3)]STHG
affinity for CBX7 relative to the corresponding H3K27me3 peptide (CBX7): 22 fold
Kd (CBX7; read-out: CBX7 Kd): 5000 nM

Kd [4]: 6700 nM
Compound: UNC3567 (peptide)

Kd [5]: 1800 nM
Kd [6]: 94 nM
Kd [7]: 610 nM
Kd [4]: 97 nM
Kd [8]: 1200 nM
Kd [9]: 6300 nM
Kd [10]: 910 nM
Kd [11]: 850 nM
IC50 [12]: 66 nM
Compound: UNC3866 (peptide)

Kd [4]: 220 nM
Compound: UNC4195 (peptide)
